# Data published in patent US20240100159A1, “USE OF IL-7R-ALPHA-GAMMA AGONIST PEPTIDES IN CELL MANUFACTURING” (MEDIKINE, INC., priority 2022, published 2024).
# Ends that are not written are not given here.
# T1: hu-IL-7Rγc subunit (human, UniProt P31785 23-262, limits assumed)
# T1 construct: also called human Rγc subunit; common γc receptor
# T1 sequence (looked up): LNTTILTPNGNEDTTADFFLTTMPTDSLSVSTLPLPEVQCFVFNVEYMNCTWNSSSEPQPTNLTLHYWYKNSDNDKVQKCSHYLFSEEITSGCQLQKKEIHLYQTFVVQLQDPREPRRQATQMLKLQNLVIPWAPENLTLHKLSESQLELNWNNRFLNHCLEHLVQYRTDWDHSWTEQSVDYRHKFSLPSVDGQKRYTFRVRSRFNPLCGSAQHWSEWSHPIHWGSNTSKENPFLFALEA
# T2: hu-IL-7Rα subunit (human, UniProt P16871 21-239, limits assumed)
# T2 construct: also called human interleukin-7 receptor subunit α; CD127
# T2 sequence (looked up): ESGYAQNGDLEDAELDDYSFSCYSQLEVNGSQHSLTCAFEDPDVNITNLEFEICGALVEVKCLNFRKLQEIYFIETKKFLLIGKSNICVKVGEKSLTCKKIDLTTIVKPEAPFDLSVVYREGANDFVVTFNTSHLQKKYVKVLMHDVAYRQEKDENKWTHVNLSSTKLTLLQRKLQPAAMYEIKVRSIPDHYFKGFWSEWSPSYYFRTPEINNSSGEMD
# Biological target: T1, hu-IL-7Rγc subunit
# Assay: not given
row,Binder,IC50 [µM]
1,"EGSTTTIECEEWAGVELCWL (not fully specified (bridges); cysteine pairing not given here, also called Rγc ligand) [SEQ ID NO 273]",< 100
2,"RSDDEVVVCQEWEGVELCWQ (not fully specified (bridges); cysteine pairing not given here, also called Rγc ligand) [SEQ ID NO 275]",< 100
3,"IECEEWAGVELCWL (not fully specified (bridges); cysteine pairing not given here, also called Rγc ligand) [SEQ ID NO 276]",< 100
4,"FAHHGVVECQEWYGVELCWQ (not fully specified (bridges); cysteine pairing not given here, also called Rγc ligand) [SEQ ID NO 279]",< 100
5,"WSKKAEVVCEEWGGVEFCWI (not fully specified (bridges); cysteine pairing not given here, also called Rγc ligand) [SEQ ID NO 281]",< 100
6,"RSNQTVVECQDWEGVELCWQ (not fully specified (bridges); cysteine pairing not given here, also called Rγc ligand) [SEQ ID NO 282]",< 100
7,"VVCQEWEGVELCWYAGECMQ (not fully specified (bridges); cysteine pairing not given here, also called Rγc ligand) [SEQ ID NO 283]",< 100
8,"ILCQEFEGVELCWLEESLAE (not fully specified (bridges); cysteine pairing not given here, also called Rγc ligand) [SEQ ID NO 284]",< 100
9,"KLTVECQDWDGVELCWVGVE (not fully specified (bridges); cysteine pairing not given here, also called Rγc ligand) [SEQ ID NO 293]",< 100
10,"VVCQEWEGVELCWVEPPLLP (not fully specified (bridges); cysteine pairing not given here, also called Rγc ligand) [SEQ ID NO 295]",< 100
11,"KTTVACQDWGGVELCWVERV (not fully specified (bridges); cysteine pairing not given here, also called Rγc ligand) [SEQ ID NO 298]",< 100
12,"KPVVVCEEWQGVELCWLEIQ (not fully specified (bridges); cysteine pairing not given here, also called Rγc ligand) [SEQ ID NO 301]",< 100
13,"VVCEVFQGVELCWCENEEFT (not fully specified (bridges); cysteine pairing not given here, also called Rγc ligand) [SEQ ID NO 302]",< 100
14,"VTCQEYEGVELCWTVGCAYS (not fully specified (bridges); cysteine pairing not given here, also called Rγc ligand) [SEQ ID NO 307]",< 100
15,"KKIVVCQDWGGVELCWTEDD (not fully specified (bridges); cysteine pairing not given here, also called Rγc ligand) [SEQ ID NO 317]",< 100

# Further lines, results first:
row,IC50 [µM],Binder
1,< 100,"RTGVECQDWHGVELCWPVWE (not fully specified (bridges); cysteine pairing not given here, also called Rγc ligand) [SEQ ID NO 320]"
2,< 100,"GYGVVCEDFRGVELCWLERK (not fully specified (bridges); cysteine pairing not given here, also called Rγc ligand) [SEQ ID NO 321]"
3,< 100,"ILCEEWQGVELCWLEGGGS (not fully specified (bridges); cysteine pairing not given here, also called Rγc ligand) [SEQ ID NO 323]"
4,< 100,"VGIECEEWAGVELCWL (not fully specified (bridges); cysteine pairing not given here, also called Rγc ligand) [SEQ ID NO 324]"
5,< 100,"IECDTSYGVYICWQ (not fully specified (bridges); cysteine pairing not given here, also called Rγc ligand) [SEQ ID NO 246]"
6,< 100,"LALRKEVVCQEYYGVELCWI (not fully specified (bridges); cysteine pairing not given here, also called Rγc ligand) [SEQ ID NO 250]"
7,< 100,"MVNREVVVCEDWYGVELCWQ (not fully specified (bridges); cysteine pairing not given here, also called Rγc ligand) [SEQ ID NO 252]"
8,< 100,"DVECVDWGGVELCWH (not fully specified (bridges); cysteine pairing not given here, also called Rγc ligand) [SEQ ID NO 255]"
9,< 100,"AHSRQEVVCEEWYGVELCWI (not fully specified (bridges); cysteine pairing not given here, also called Rγc ligand) [SEQ ID NO 258]"
10,< 100,"YSRELYVQCEDWEGVELCWI (not fully specified (bridges); cysteine pairing not given here, also called Rγc ligand) [SEQ ID NO 260]"
11,< 100,"RLLNSVVECLDWEGVELCWQ (not fully specified (bridges); cysteine pairing not given here, also called Rγc ligand) [SEQ ID NO 268]"
12,< 100,"VVCQEWEGVELCWC (not fully specified (bridges); cysteine pairing not given here, also called Rγc ligand) [SEQ ID NO 270]"

# Biological target: T2, hu-IL-7Rα subunit
# Assay: phage ELISA competition assay
row,Binder,IC50 [µM]
1,HCLHWNIETLMSCVYGNFEE (also called IL-7Rα ligand) [SEQ ID NO 100],< 10
2,QCVHWDLDTLFGCIREQLEL (also called IL-7Rα ligand) [SEQ ID NO 109],< 10
3,RHFDDIIPWCTLDPGSLQCAYL (also called IL-7Rα ligand) [SEQ ID NO 110],< 10
4,SAKVLKQCLHWDLESLLSCL (also called IL-7Rα ligand) [SEQ ID NO 111],< 10
5,VPWCMLDPGSMQCAWL (also called IL-7Rα ligand) [SEQ ID NO 113],< 10
6,VHRIPWCTLDPGGLQCAWLRQM (also called IL-7Rα ligand) [SEQ ID NO 114],< 10
7,WVTIPWCILDPGSLQCEWQTKV (also called IL-7Rα ligand) [SEQ ID NO 115],< 10
